Target: rAAV9 vector (AAV9 capsid: full, intermediate and empty capsids) comprising a mini-dystrophin transgene (adeno-associated virus serotype 9 (AAV9))
Assay: affinity chromatography lifecycle study, unbound vg in flow through, resin challenge 7.5x10^13 vg/mL resin

POROS CaptureSelect AAV9 affinity resin ligand (VHH)
% unbound vg: < 2%

— patent US20240043869A1
